Among the data in publication doi:10.1101/2020.03.13.990150 are stoichiometry N values, retold here.

In the test the target is Saccharomyces cerevisiae (Sc) Tim9 (Saccharomyces cerevisiae). Description: SEC. In general terms: Size exclusion chromatography separates by hydrodynamic size, large species first.

Consider “Saccharomyces cerevisiae (Sc) Tim9 (natural protein)”, for which the stoichiometry N (usually the number of molecules, sites or subunits per partner or assembly) came to 2.
